Measured values: patent US20250043259, “ENDONUCLEASES THAT SELECTIVELY CLEAVE SINGLE-STRANDED NUCLEIC ACIDS AND USES THEREOF” (INSTITUT NATIONAL DE LA RECHERCHE SCIENTIFIQUE, published 2025)

Key:
[1] = molecular target: T1, SsnA (NMV_0044) (Neisseria meningitidis 8013 2C4.3, UniProt Q9K1N6 Q9K1N6:1-94); assay: EMSA; conditions: no Mg, 50 mM NaCl, 10 mM Tris pH 7.9, 37 C; 0.5 uM protein, 0.8 uM DNA
T1 sequence: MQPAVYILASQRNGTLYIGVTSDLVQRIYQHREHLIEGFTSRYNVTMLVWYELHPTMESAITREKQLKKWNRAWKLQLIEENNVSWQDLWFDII

[2] = molecular target: T1, SsnA (NMV_0044); assay: cleavage_in_vitro; conditions: 10 mM MgCl2, 37 C optimum; abolished by EDTA
[3] = molecular target: T1, SsnA (NMV_0044); assay: EMSA; binding preserved, cleavage reduced to varying extents; conditions: tags: N-terminal 6xHis; label: 5'-carboxyfluorescein; hairpin
Experimental: (§1) Electrophoretic mobility shift assay (EMSA). Gel shift assays, or EMSA, were performed by diluting the proteins in Diluent A (NEB) to the indicated working concentrations. 5′carboxyfluorescin-tagged oligos corresponding to genomic regions of N. meningitidis MC58 were synthesized from Sigma. When needed, complementary oligonucleotides were annealed by mixing equimolar amounts in annealing buffer (10 mM Tris-HCl PH8, 50 mM NaCl, 1 mM EDTA), incubating them 5 minutes at 95° C. and letting them slowly cool down. For the gel-shift assays, proteins were mixed with the fluorescent oligonucleotides in a reaction buffer containing 50 mM NaCl, 10 mM Tris-HCl, 100 μg/ml BSA, pH7.9. The mixes were incubated at 37° C. for 30 minutes before adding native loading dye. Samples were resolved on native 10% TBE-acrylamide gels and imaged with a Typhoon FLA9500 scanner. For branched DNA binding assays, a similar approach was used but the gel was stained with GelStain (Biotium) and imaged on a GelDoc (BioRad) since the oligonucleotides were not fluorescently labelled.

[4] = molecular target: T1, SsnA (NMV_0044); assay: EMSA; unable to interact with RNA; conditions: tags: N-terminal 6xHis
Experimental: as §1

[5] = molecular target: T1, SsnA (NMV_0044); assay: EMSA; no Mg, 37 C; also not cleaved; conditions: tags: N-terminal 6xHis; label: 5'-carboxyfluorescein
Experimental: Gel-shift (top, EMSA) and endonuclease (bottom) assays of 0.5 μM SsnA with 0.8 µM of DNA. Magnesium was omitted from the EMSA reaction mix to allow DNA binding by SsnA without nuclease activity. ssDNArev is the reverse complement of ssDNA. dsDNA is the double-stranded annealed product from ssDNA with ssDNArev. The arrow represents the recognition pattern (NTS repeat) of SsnA. Unless otherwise indicated (last well), assayed proteins were his-tagged.
as §1, with “For branched DNA binding assays, a similar approach was used but the gel was stained with GelStain (Biotium) and imaged on a GelDoc (BioRad) since the oligonucleotides were not fluorescently labelled.” left out

With ssDNA (100 nt, NTS) the binding [1] was 100 % bound and the activity [2] was 100 % cleaved.

B1: NTS#1 (ssDNA)
DNA: GAGGTTTCGGGCAACTTCTAAACCGTCATTCCCGCGCAGGCGGGAATCCAGACCATTGGACAGCAGCAATATTCAAAGATTATCTGAAAGTCCGGGATTC
B1: binds [3].

B2: NTS#4 (ssDNA)
DNA: TAAATGACCCCAACTTAAAATCCCGTCATTCCCGCGCAGGCGGGAATCTAGGTCTGTCGGTGCGGAAACTTATCGGGTAAAACGGTTTCTTGAGATTTTG
B2: binds [3].

B3: RNA37 (ssRNA)
RNA: AAAAAUAUUCCGUCAUUCCCGCGAAAGCGGGAAUCUA
B3: no binding [4].

B4: NTS#5 (ssDNA)
DNA: GTCATTCCCACGAACCTACATTCCGTCATTCCCACGAAAGTGGGAATCCAGTGCGTTGAGTTTCAGTCATTTCCAATAAATTGCCTTAGTATTGAATGTC
B4: binds [3].

B5: NTS#3 (ssDNA)
DNA: ATCCCGTCATTCCCGCCACTTTCCGTCATTCCCGCGAAAGCGGGAATCTAGAATCTCGGACTTTCAGATAATCTTTGAATATTGCTGTTGTTCTAAGGTC
B5: binds [3].

B6: ssDNArev (ssDNA)
DNA: CCAGGTCTGTCGGTGCGGAAACTTATCGGATAAAACGGTTTCTTTAGATTTTACGTTCTAGATTCCCGCTTTCGCGGGAATGACGGAATATTTTTGAATT
modifications: [none]
B6: no binding [5].

B7: dsDNA (100 bp, NTS) (dsDNA)
DNA 1: AATTCAAAAATATTCCGTCATTCCCGCGAAAGCGGGAATCTAGAACGTAAAATCTAAAGAAACCGTTTTATCCGATAAGTTTCCGCACCGACAGACCTGG
DNA 2: CCAGGTCTGTCGGTGCGGAAACTTATCGGATAAAACGGTTTCTTTAGATTTTACGTTCTAGATTCCCGCTTTCGCGGGAATGACGGAATATTTTTGAATT
B7: no binding [5].

B8: NTS#2 (ssDNA)
DNA: GTCATTCCCACGAACCTACATTCCGTCATTCCCACGAAAGTGGGAATCTAGAATCTCTAAAGCTTCAGCTAACCTTTGAATATTGCTGTTGTTCTAAGGT
B8: binds [3].
